In data set [1] the target is T1, Mrs1 (yeast, UniProt P07266 1-363).
T1 sequence: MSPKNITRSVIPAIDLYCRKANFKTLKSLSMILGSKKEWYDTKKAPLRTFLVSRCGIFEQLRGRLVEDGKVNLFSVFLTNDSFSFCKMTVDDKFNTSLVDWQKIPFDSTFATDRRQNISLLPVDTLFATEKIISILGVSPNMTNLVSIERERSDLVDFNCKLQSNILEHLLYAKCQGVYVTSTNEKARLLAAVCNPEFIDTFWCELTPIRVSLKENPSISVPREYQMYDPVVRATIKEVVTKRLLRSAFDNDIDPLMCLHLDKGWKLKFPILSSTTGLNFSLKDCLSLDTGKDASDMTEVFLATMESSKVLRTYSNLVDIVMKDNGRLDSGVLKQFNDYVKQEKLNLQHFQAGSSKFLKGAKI
The experiment in a line: filter binding. The settings on record: RNA folded in its own buffer (composition not given), 30 min at 37 C with Mrs1, SL and B5 at 8 mM MgCl2.

Data set [2] addresses T1, Mrs1. The experiment in a line: filter binding; 8 mM MgCl2; Hill ~1.5; Filter partitioning (nitrocellulose/Hybond), RNA folded in its own buffer (composition not given), 30 min at 37 C with Mrs1; SL and B5 at 8 mM MgCl2; RNA ~0.5 nM (large) or ~0.1 nM (SL, B5). The settings on record: protein: recombinant, chain copies: 2, label: internal 32P.

Consider Azoarcus group I intron RNA, for which the K half in data set [1] (Hill 1.8, Filter partitioning (nitrocellulose/Hybond)) was 3 nM. In data set [1] (Hill 2.0, Filter partitioning (nitrocellulose/Hybond)), RNase P specificity domain RNA displayed a K half of 230 nM.

In the case of bI3 group I intron RNA, the K half in data set [1] (Hill 2.2, Filter partitioning (nitrocellulose/Hybond)) is 9.7 nM.

B1: SL RNA (structured_RNA)
RNA: GGCUGACGAAGCGGUGCAGUGCUGUUUCAGCACUGCACCGCUUCGUCAGCC
For B1, in data set [2] (hairpin, 24 bp), the “apparent K (half saturation)” value is 1300 nM.

B2: B5 RNA (structured_RNA)
RNA: GGCUGACGAAGCGGUGCAGUGCUGUUUCAGCACUGCACCGAAAAACUUCGUCAGCC
With B2, the “apparent K (half saturation)” value in data set [2] (hairpin with 5 nt bulge) is approximately 500 nM.

The values above are taken from article PMC2813881, “The Mrs1 Splicing Factor Binds the bI3 Group I Intron at Each of Two Tetraloop-Receptor Motifs”.
